According to patent US20240084262A1, “METHODS FOR DIFFERENTIATION OF PANCREATIC EXOCRINE CELLS FROM HUMAN INDUCED PLURIPOTENT STEM CELLS” (CEDARS-SINAI MEDICAL CENTER, priority 2020, published 2024):
Entries after “also recorded” stand apart in the source; their conditions may differ.

What was measured:
[1] = test system: iPSC-derived pancreatic progenitors; assay: Acinar differentiation of iPSC-derived pancreatic progenitors (ICC); type: cell-based, human; conditions: for PDX1 levels / expression / amylase positive clusters / cells: Notch modulation in the presence of FGF10
Protocol: Using the same DMEM base media, cells were then treated daily for seven days with XXI, FGF10, Noggin, Nicotinamide, and Murine Wnt3a (Peprotech). By the end of this stage, cell clustering could be seen.
Planar fixed samples were fixed with 4% paraformaldehyde in PBS for 15 minutes. Following this, they were washed three times with PBS and then incubated with 10% donkey serum with 0.1% Triton-X for one hour. Primary antibodies diluted in the 10% blocking serum were added, and the samples were let incubate for three hours at room temperature or overnight at 4 C. From here, the samples were washed three times for five minutes each with 0.1% TWEEN in PBS. Secondary antibodies diluted at 1:1000 in the blocking serum were added and the samples were allowed to sit one hour at room temperature. Three rounds of five-minute washes with PBS were performed before Hoechst was added at a 1:2000 dilution in PBS. After a 15-minute room temperature incubation, samples were washed with PBS three times before being imaged.
We performed an experiment comparing the use of notch inhibitor XXI vs notch activator sDLL-1 with FGF10. […] We added Wnt3a as it is important.

[2] = test system: iPSC-derived pancreatic progenitors; assay: iPan Ductal maturation/specification (qPCR, ICC); type: cell-based, human
Protocol: After 1 day of Phase III, on Day 7, cells were single cell dissociated with TrypLE for 3-6 minutes, washed and seeded at 33% confluency (9.5×10^4 cells/cm^2) in Phase III media plus 10 μM Rho kinase Inhibitor. On Day 8 onwards, cells were treated with Phase IV media—addition of FGF10 (25 ng/ml), EGF (50 ng/ml), and sDLL-1 (25 ng/ml, Peprotech). The base media for phase III and IV consists of DMEM, lx Pen-Strep, 1×B27 without Vitamin A (Thermo Fisher), and Vitamin C (250 μM).
For organoids, Cell Recovery Solution (Corning) was added for an hour in 4° to remove Matrigel then washed 3× with PBS. Total RNA was isolated with RLT buffer (Qiagen), syringed with 23 G needle, then extracted with RNeasy Micro Kit (Qiagen) according to the manufacturer's instructions. The concentration and the purity of RNA was determined with NanoDrop. 1-2 μg RNA was reverse transcribed to cDNA High-Capacity cDNA Reverse Transcription kit (Thermo Fisher). Real-time qPCR was performed (technical replicates, n=3-4) using SYBR Master Mix (Applied Biosystems, #4472952) and specific primer sequences to each gene (Table 1), on a CFX384 Real Time system (Bio-Rad). Human RPL13 was used as the reference gene and relative expression was determined using 2-ΔΔ Ct method.
Planar cultures were fixed with 4% PFA for 15 minutes, washed with PBS and then blocked overnight at 4° C. with 10% donkey serum containing 0.1% Triton-X100. After overnight incubation with primary antibodies at 4° C., cells were washed with 0.1% TWEEN-20 3× for 5 min, incubated with secondary antibodies for an hour at RT, and finally incubated with Hoechst 33342 (1:2000 dilution) for 15 minutes for nuclear counterstaining.
To optimize the ductal maturation phase, the effect of dissociating pancreatic progenitors on Day 7 and adding growth factor EGF and the Notch activating ligand sDLL-1 to the cultures was explored. FGF10 was also added at this time to increase proliferation of pancreatic cells. Based on our results, we incorporated a dissociation step prior to initiating EGF and Notch signaling in our defined iPan Ductal protocol (FIG. 2A). Dissociation of pancreatic progenitor cells inhibited acinar differentiation by Day 21 (FIG. 2B).

[3] = sDLL1 for 2 weeks started late, at pancreatic endoderm stage, Day 21

C[C@H](NC(=O)Cc1cc(F)cc(F)c1)C(=O)N[C@H]1N=C(c2ccccc2)c2ccccc2N(C)C1=O [XXI]
PDX1 levels / expression [1]: reduces PDX1 expression; also recorded: lowest PDX1 levels
amylase positive clusters / cells [1]: increases islands of amylase positive cells; also recorded: most increase in amylase positive clusters

EGF: growth factor EGF
survival and confluency (immunocytochemistry) ([2]; dissociated cells exposed to EGF): increased survival and confluency
levels of ductal markers KRT19, HNF1B, SOX9, FOXA2 ([2]; dissociated cells with exposure to EGF): increased levels of ductal KRT19, HNF1B, SOX9, and FOXA2 markers

B1: sDLL1: Notch-activating ligand; extracellular signaling domain of DLL1 (protein, UniProt O00548 18-545, looked up)
extracellular domain: QVWSSGVFELKLQEFVNKKGLLGNRNCCRGGAGPPPCACRTFFRVCLKHYQASVSPEPPCTYGSAVTPVLGVDSFSLPDGGGADSAFSNPIRFPFGFTWPGTFSLIIEALHTDSPDDLATENPERLISRLATQRHLTVGEEWSQDLHSSGRTDLKYSYRFVCDEHYYGEGCSVFCRPRDDAFGHFTCGERGEKVCNPGWKGPYCTEPICLPGCDEQHGFCDKPGECKCRVGWQGRYCDECIRYPGCLHGTCQQPWQCNCQEGWGGLFCNQDLNYCTHHKPCKNGATCTNTGQGSYTCSCRPGYTGATCELGIDECDPSPCKNGGSCTDLENSYSCTCPPGFYGKICELSAMTCADGPCFNGGRCSDSPDGGYSCRCPVGYSGFNCEKKIDYCSSSPCSNGAKCVDLGDAYLCRCQAGFSGRHCDDNVDDCASSPCANGGTCRDGVNDFSCTCPPGYTGRNCSAPVSRCEHAPCHNGATCHERGHRYVCECARGYGGPNCQFLLPELPPGPAVVDLTEKLEGQGGPFPW
modifications: extracellular domain
notes: extracellular signaling domain of DLL1
PDX1 levels / expression [1]: does not increase the Amylase positive clusters or decrease PDX1 levels
amylase positive clusters / cells [1]: does not increase the Amylase positive clusters
C-Peptide+ endocrine cells [2, 3]: C-Peptide was elevated; also recorded: higher amount of C-Peptide^+ endocrine cells
ductal markers [2, 3]: no increase in ductal markers

B2: FGF10: growth factor added to increase proliferation of pancreatic cells; activates PDX1 (protein, UniProt O15520 38-208, looked up)
Fibroblast growth factor 10: QALGQDMVSPEATNSSSSSFSSPSSAGRHVRSYNHLQGDVRWRKLFSFTKYFLKIEKNGKVSGTKKENCPYSILEITSVEIGVVAVKAINSNYYLAMNKKGKLYGSKEFNNDCKLKERIEENGYNTYASFNWQHNGRQMYVALNGKGAPRRGQKTRRKNTSAHFLPMVVHS
CTRC and amylase positive cell expression ([1]; FGF10 tested at 0, 2.5, 20 and 50 ng/mL, result for 20 ng): most CTRC and amylase positive cell expression
